The assay concerns the target extracellular domain (25-250) of the human EPO receptor EPOR (human) (UniProt P19235). In words: SEC + other: RP-HPLC-MS of the isolated complex after dissociation; proteins mixed in solution under dilute conditions (about 0.3 mg EPOR per mL); gel filtration over an analytical Superdex 75 column; complex peak analysed by non-reducing SDS-PAGE, then dissociated with 0.2 % TFA (1 h) and analysed by RP-HPLC-MS for the ratio of the two proteins. (In general: Size exclusion chromatography separates by hydrodynamic size, large species first.)

As to “EPO A (synthetic asialo glycoform of human erythropoietin 1-166 with three biantennary N-glycans terminating with galactose) (from UniProt P01588 28-193) (ligand)”, the stoichiometry N was 1 EPO:EPOR. Turning to “EPO S (synthetic sialylated glycoform of human erythropoietin 1-166 with three alpha-2,6-sialylated biantennary N-glycans) (from UniProt P01588 28-193) (ligand)”, the stoichiometry N was 1 EPO:EPOR.

One may read the stoichiometry N as the number of molecules, sites or subunits per partner or assembly.
